Test results from patent publication US20140348834A1 (published 2014).
Read-outs that look alike come from different tables or passages of the source.

Legend:
human IL-17A [1] = biological target: T1, human IL-17A (human, UniProt Q16552 24-155); assay: hIL17A ELISA
T1 construct: Recombinant; biotinylated in the ELISA; also called hIL-17; hIL17A

human IL-17A [2] = biological target: T1, human IL-17A; assay: cell-based or functional assay
cynomolgus monkey IL-17A [3] = biological target: T2, cynomolgus monkey IL-17A (cynomolgus monkey, UniProt A0A2K5TTB0 24-155); assay: cell-based or functional assay
human IL-17A/F = biological target: T3, human IL-17A/F (human, UniProt Q16552 24-155; Q96PD4 31-163); assay: SPR (Biacore 3000), antibody captured by anti-Fc, antigen in solution;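 note: purified recombinant IL-17 antigens flowed over captured antibodies in HBS-EP buffer, global Langmuir one-to-one fit of association and dissociation phases, KD derived from koff over kon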
T3 construct: Recombinant; biotinylated in the ELISA; also called hIL-17A/F; HuIL-17A/F
Procedure: (§1) The binding of antibodies to purified recombinant human, cyno, rat, mouse, rabbit IL-17 and human IL-17A/F were determined by surface plasmon resonance-based measurements with a Biacore® 3000 instrument (Biacore® AB, Uppsala, Sweden) using running HBS-EP (10 mM HEPES [pH 7.4], 150 mM NaCl, 3 mM EDTA, and 0.005% surfactant P20) at 25° C. […] Approximately 5000 RU of goat anti-mouse or anti-human IgG (Fcγ) fragment specific polyclonal antibody (Pierce Biotechnology Inc, Rockford, Ill.) diluted in 10 mM sodium acetate (pH 4.5) was directly immobilized across a CM5 research grade biosensor chip using a standard amine coupling kit according to manufacturer's instructions and procedures at 25 μg/ml. Unreacted moieties on the biosensor surface were blocked with ethanolamine. Modified carboxymethyl dextran surface in flowcell 2 and 4 was used as a reaction surface. Unmodified carboxymethyl dextran without goat anti-mouse or anti-human IgG in flow cell 1 and 3 was used as the reference surface. For kinetic analysis, rate equations derived from the 1:1 Langmuir binding model were fitted simultaneously to association and dissociation phases of all eight injections (using global fit analysis) with the use of Biaevaluation 4.0.1 software. Purified antibodies were diluted in HEPES-buffered saline for capture across goat anti-mouse or anti-human IgG specific reaction surfaces. Antibodies to be captured as a ligand (25 μg/ml) were injected over reaction matrices at a flow rate of 5 μl/min. The association and dissociation rate constants, kon (unit M-1s-1) and koff (unit s-1) were determined under a continuous flow rate of 25 μl/min. Rate constants were derived by making kinetic binding measurements at ten different antigen concentrations ranging from 10 nM to 200 nM. The equilibrium dissociation constant (unit M) of the reaction between antibodies and recombinant purified IL-17 antigens was then calculated from the kinetic rate constants by the following formula: KD=koff/kon. Binding was recorded as a function of time and kinetic rate constants are calculated. In this assay, on-rates as fast as 10⁶ M⁻¹ s⁻¹ and off-rates as slow as 10⁻⁶ s⁻¹ can be measured.

human IL-17A [4] = biological target: T1, human IL-17A; assay: as above
Procedure: as §1

rat IL-17A = biological target: T4, rat IL-17A (rat, UniProt Q61453 18-150, limits assumed); assay: as above
T4 construct: Purified recombinant protein in SPR
T4 sequence (looked up): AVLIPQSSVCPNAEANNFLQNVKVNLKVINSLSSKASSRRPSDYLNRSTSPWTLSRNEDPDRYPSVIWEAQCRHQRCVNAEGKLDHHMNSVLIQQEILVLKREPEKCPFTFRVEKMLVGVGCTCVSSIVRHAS
Procedure: as §1

mouse IL-17A = biological target: T5, mouse IL-17A (mouse, UniProt Q62386 26-158, limits assumed); assay: as above
T5 construct: Purified recombinant protein in SPR; also called MuIL-17A; murine IL-17A
T5 sequence (looked up): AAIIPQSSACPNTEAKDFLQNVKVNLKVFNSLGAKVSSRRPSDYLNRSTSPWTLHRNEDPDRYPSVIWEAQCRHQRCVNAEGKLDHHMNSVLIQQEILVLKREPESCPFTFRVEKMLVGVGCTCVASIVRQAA
Procedure: as §1

cynomolgus monkey IL-17A [5] = biological target: T2, cynomolgus monkey IL-17A; assay: as above
Procedure: as §1

human IL-17A [6] = biological target: T1, human IL-17A; assay: cell-based or functional assay; remark: listed apart in the source

T3 sequence (Q16552 24-155, chain 1 of 2): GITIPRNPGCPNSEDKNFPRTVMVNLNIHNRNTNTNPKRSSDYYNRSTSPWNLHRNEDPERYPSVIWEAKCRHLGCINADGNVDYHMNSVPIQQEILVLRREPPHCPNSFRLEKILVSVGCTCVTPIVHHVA
T3 sequence (Q96PD4 31-163, chain 2 of 2): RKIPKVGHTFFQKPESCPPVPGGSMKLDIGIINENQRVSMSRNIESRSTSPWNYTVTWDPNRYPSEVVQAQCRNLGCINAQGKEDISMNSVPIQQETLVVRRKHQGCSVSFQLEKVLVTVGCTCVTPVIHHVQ
T1 sequence (Q16552 24-155): as the sequence (Q16552 24-155, chain 1 of 2) above
T2 sequence (A0A2K5TTB0 entry or part of it): as the sequence (Q16552 24-155, chain 1 of 2) above, with T3A, P8S, N34S, I77V, N78K, P104R counted along it

B1: IL17-h10F7.4 (antibody, V domains shown)
VH: QVQLQQSGAELVRPGTSVTLSCKASGYIFTDYEIHWVKQTPVHGLEWIGVNDPESGGTFYNQKFDGKAELTADKSSSTAYMELRSLTSEDSGVYYCTRYYRYESFYGMDYWGQGTSITVSS
VL: DIQLTQSPSSLSASVGDRVTITCSASSSISYIYWFQQKPGKSPKRWIYATFELASGVPSRFSGSGSGTDYTLTISSLQPEDFATYYCHQRSSYPWTFGQGTKLEIKR
notes: IgG; constant regions not specified
Question: How did the EC50 (human IL-17A [1]) turn out when B1 was run?
Answer: 0.04 nM

Question: And the “Potency (pM), IL-17-driven IL-6 production in HS27 cells” value (from here on “Potency (pM)”) (human IL-17A [2])?
Answer: 117 pM

B2: m10F7hIgG1 (antibody, V domains shown)
VH: QVQLQQSGAELVRPGTSVTLSCKASGYIFTDYEIHWVKQTPVHGLEWIGVNDPESGGTFYNQKFDGKAELTADKSSSTAYMELRSLTSEDSGVYYCTRYYRYESFYGMDYWGQGTSITVSS
VL: QIVLTQSPAIMSASPGEKVTMTCSASSSISYIYWFQQKPGTSPKRWIYATFELASGVPARFSGSGSGTSYSLTISSMEAEDAATYYCHQRSSYPWTFGGGSKLEIKR
Question: B2 was tested. Which “Potency (pM)” value (human IL-17A [2]) did it give?
Answer: 40 pM

Question: And the “Potency (pM)” value (cynomolgus monkey IL-17A [3])?
Answer: 79 pM

B3: IL17-h10F7.9 (antibody, V domains shown)
VH: QVQLQQSGAELVRPGTSVTLSCKASGYIFTDYEIHWVKQTPVHGLEWIGVNDPESGGTFYNQKFDGKAELTADKSSSTAYMELRSLTSEDSGVYYCTRYYRYESFYGMDYWGQGTSITVSS
VL: EIVLTQSPDFQSVTPKEKVTITCSASSSISYIYWFQQKPDQSPKRWIYATFELASGVPSRFSGSGSGTDYTLTINSLEAEDAATYYCHQRSSYPWTFGQGTKLEIKR
notes: as for B1
Question: With B3 as the binder, how does the EC50 (human IL-17A [1]) read?
Answer: 0.04 nM

Question: And the “Potency (pM)” value (human IL-17A [2])?
Answer: 293 pM

B4: IL17-h10F7.13 (antibody, V domains shown)
VH: EVQLVQSGAEVKKPGSSVKVSCKASGYTFTDYEIHWVRQAPGQGLEWIGVNDPESGGTFYNQKFDGRATLTADKSTSTAYMELSSLRSEDTAVYYCTRYYRYESFYGMDYWGQGTTVTVSS
VL: QIVLTQSPSSLSASVGDRVTITCSASSSISYIYWFQQKPGKSPKRWIYATFELASGVPSRFSGSGSGTDYTLTISSLQPEDFATYYCHQRSSYPWTFGQGTKLEIKR
notes: as for B1
Question: With B4 as the binder, how does the EC50 (human IL-17A [1]) read?
Answer: 0.1 nM

Question: And the “Potency (pM)” value (human IL-17A [2])?
Answer: 242 pM

Question: And the “Potency (pM)” value (cynomolgus monkey IL-17A [3])?
Answer: 429 pM

B5: IL17-h10F7.6 (antibody, V domains shown)
VH: EVQLVQSGAEVKKPGSSVKVSCKASGYTFTDYEIHWVRQAPGQGLEWIGVNDPESGGTFYNQKFDGRATLTADKSTSTAYMELSSLRSEDTAVYYCTRYYRYESFYGMDYWGQGTTVTVSS
VL: DIQLTQSPSSLSASVGDRVTITCSASSSISYIYWFQQKPGKSPKRWIYATFELASGVPSRFSGSGSGTDYTLTISSLQPEDFATYYCHQRSSYPWTFGQGTKLEIKR
notes: IgG; constant regions not specified; also called h10F7.6 (VH.1a-Vk.1a)
Question: Which EC50 (human IL-17A [1]) does the source give for B5 here?
Answer: 0.05 nM

Question: And the “Potency (pM)” value (human IL-17A [2])?
Answer: 264 pM

Question: What about the “Potency (pM)” value (cynomolgus monkey IL-17A [3]) of the same binder?
Answer: 313 pM

Question: And the Kd (human IL-17A/F)?
Answer: 1.14 nM

Question: What about the koff (human IL-17A/F) of the same binder?
Answer: 0.000696 s⁻¹

Question: And the kon (human IL-17A/F)?
Answer: 609000 M⁻¹ s⁻¹

Question: What about the Kd (human IL-17A [4]) of the same binder?
Answer: 0.302 nM

Question: What about the koff (human IL-17A [4]) of the same binder?
Answer: 0.000185 s⁻¹

Question: What about the kon (human IL-17A [4]) of the same binder?
Answer: 612000 M⁻¹ s⁻¹

Question: What about the Kd (rat IL-17A) of the same binder?
Answer: 0.919 nM

Question: And the koff (rat IL-17A)?
Answer: 0.000454 s⁻¹

Question: What about the kon (rat IL-17A) of the same binder?
Answer: 494000 M⁻¹ s⁻¹

Question: What about the Kd (mouse IL-17A) of the same binder?
Answer: 0.98 nM

Question: And the koff (mouse IL-17A)?
Answer: 0.000384 s⁻¹

Question: And the kon (mouse IL-17A)?
Answer: 392000 M⁻¹ s⁻¹

Question: What about the Kd (cynomolgus monkey IL-17A [5]) of the same binder?
Answer: 0.217 nM

Question: What about the koff (cynomolgus monkey IL-17A [5]) of the same binder?
Answer: 0.000154 s⁻¹

Question: What about the kon (cynomolgus monkey IL-17A [5]) of the same binder?
Answer: 711000 M⁻¹ s⁻¹

B6: IL17-h10F7.15 (antibody, V domains shown)
VH: EVQLVQSGAEVKKPGSSVKVSCKASGYTFTDYEIHWVRQAPGQGLEWIGVNDPESGGTFYNQKFDGRATLTADKSTSTAYMELSSLRSEDTAVYYCTRYYRYESFYGMDYWGQGTTVTVSS
VL: EIVLTQSPSSLSASVGDRVTITCSASSSISYIYWFQQKPGKSPKRWIYATFELASGVPSRFSGSGSGTDYTLTISSLQPEDFATYYCHQRSSYPWTFGQGTKLEIKR
notes: as for B1
Question: Which EC50 (human IL-17A [1]) does the source give for B6 here?
Answer: 0.14 nM

Question: What about the “Potency (pM)” value (human IL-17A [2]) of the same binder?
Answer: 309 pM

Question: What about the “Potency (pM)” value (cynomolgus monkey IL-17A [3]) of the same binder?
Answer: 499 pM

B7: ML109-7D7 (antibody, V domains shown)
VH: QVQLQQSGAELVRPGTSVTLSCKASGYRFTDYEIHWIKQTPAQVLEWIGVTDPESGGTLHNPKFDGKATLTADKSSRTAYMELRSLTSEDSAVYYCTRYYKYESFYGMDYWGQGTSVTVSS
VL: QIVLTQSPAIMSAFPGEKVTMTCSASSSISYMCWYQQKPGTSPKRWICDTSKLASGVPVRFSGSGSGTSYSLTINSMETEDAATYYCQQRSSYPWTFGGGTKVEIKR
Question: For B7, which “Potency (pM)” value (human IL-17A [6]) is on record?
Answer: 81 pM
